Measurements published in patent publication US20220017612A1 (TILOS THERAPEUTICS, published 2022).

Assays:
[1] = molecular target: T1, human LAP-TGFβ1 overexpressed on cells (human, UniProt P01137 30-390); assay: flow cytometry; black bar HT1080-huB1, grey bar HT1080
T1 construct: HT1080 or P3U1 cells overexpressing wild-type human LAP-TGFβ1; also called HT1080-huB1; HT1080-hβ1
Procedure: First, the ability of the humanized 20E6 candidates to bind to HT1080 cells overexpressing human TGFβ1 was tested by flow cytometry. HT1080 cells over-expressing human LAP-TGFβ1 were placed in a round-bottom 96-well plate at density of 40,000 cells/well. The cells were washed with FACS buffer (25 mM HEPES, 2 mM EDTA, 2% fetal bovine serum in Hank's Balanced Salt Solution). A volume (50 μL) of 1:200 diluted TruStain Human FcX (BioLegend) was added to each well, followed by 50 μL of 100 ng/μL of humanized 20E6 antibody construct. The antibody was allowed to bind for 20 minutes. The cells were washed twice with FACS buffer. The cells were labeled for 15 minutes with Alexa647-anti Human IgG (Jackson Immunoresearch), washed twice with FACS buffer, and analyzed by flow cytometry.

[2] = molecular target: T2, fusion protein of a human IgG1 Fc domain and human LAP-TGFβ1 (human, UniProt P01137 30-390); assay: BLI, 2:1 model, component 1
T2 construct: printed both as Fc-huB1 and LAP-TGFβ-Fc; also called Fc-huB1; Fc-human LAP
T2 sequence (P01137 30-390 limits assumed): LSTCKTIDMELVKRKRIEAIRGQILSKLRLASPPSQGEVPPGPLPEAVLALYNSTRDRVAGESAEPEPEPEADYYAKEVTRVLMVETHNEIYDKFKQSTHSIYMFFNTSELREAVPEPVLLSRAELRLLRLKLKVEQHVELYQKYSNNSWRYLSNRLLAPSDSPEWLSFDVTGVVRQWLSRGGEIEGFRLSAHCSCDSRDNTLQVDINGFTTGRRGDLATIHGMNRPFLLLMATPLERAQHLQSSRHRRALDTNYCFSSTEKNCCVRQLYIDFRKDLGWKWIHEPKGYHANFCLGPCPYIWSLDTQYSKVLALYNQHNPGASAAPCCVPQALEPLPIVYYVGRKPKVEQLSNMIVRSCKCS
Procedure: (§1) The 20E6_H0.2aL1_IgG1 antibody was biotinylated using EZ-Link SulfoNHS-LC-Biotin (ThermoFisher). A streptavidin-functionalized tip was equilibrated in binding buffer (10 mM sodium phosphate, 150 mM sodium chloride, 1% (w/v) bovine serum albumin, 0.05% (w/v) sodium azide, pH 7.4) and dipped in a 10 μg/mL solution of biotinylated anti-LAP in binding buffer for 30 seconds to load the tip with antibody. The antibody-loaded tip was then washed in binding buffer and placed in a solution containing 0-24 nM of a fusion protein having a human IgG1 Fc domain fused to either human LAP-TGFβ1, human LAP-TGFβ2 or human LAP-TGFβ3. The antigen was allowed to bind to antibody for 5 minutes (association phase), and then the tip was moved to binding buffer (dissociation phase). The association and dissociation phases were fit to a 2:1 heterogenous ligand binding model to determine the binding rate constants. As shown in FIG. 21A and Table 17, 20E6_H0.2aL1_IgG1 bound with sub-nanomolar affinity to human LAP-TGFβ1, but not to human LAP-TGFβ2 (FIG. 21B) or LAP-TGFβ3 (FIG. 21C).
(§2) The binding of 20E6_H0.2aL1_IgG1 antibody and 20E6_H0.2aL1_hIgG4mut antibody to LAP-TGFβ1 of various species was examined by bio-layer interferometry using the method described in Example 12, except that the antibody-loaded tip was placed in a solution containing 0-24 nM of a fusion protein having a human IgG1 Fc domain fused to either mouse, rat, cynomolgus monkey, or human LAP-TGFβ1.

[3] = molecular target: T3, fusion protein of a human IgG1 Fc domain and cynomolgus monkey LAP-TGFβ1 (human; cynomolgus monkey); assay: BLI, 2:1 model, component 1
T3 construct: also called cynomolgus monkey LAP-TGFβ-Fc
Procedure: as §1, §2

[4] = molecular target: T4, fusion protein of a human IgG1 Fc domain and rat LAP-TGFβ1 (human; rat, UniProt P17246 30-390, limits assumed); assay: BLI, 2:1 model, component 1
T4 construct: also called rat LAP-TGFβ-Fc
T4 sequence (P17246 30-390 limits assumed): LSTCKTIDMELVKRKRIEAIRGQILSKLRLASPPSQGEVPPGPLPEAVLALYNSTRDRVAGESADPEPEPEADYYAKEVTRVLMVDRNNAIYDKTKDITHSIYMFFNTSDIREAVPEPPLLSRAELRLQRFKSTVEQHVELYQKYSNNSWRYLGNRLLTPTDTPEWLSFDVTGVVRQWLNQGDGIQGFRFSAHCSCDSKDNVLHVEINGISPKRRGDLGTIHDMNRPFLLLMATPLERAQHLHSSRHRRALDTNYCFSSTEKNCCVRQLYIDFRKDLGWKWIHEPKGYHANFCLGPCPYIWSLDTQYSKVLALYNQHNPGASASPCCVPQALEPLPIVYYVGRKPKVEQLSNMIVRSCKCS
Procedure: as §1, §2

[5] = molecular target: T5, fusion protein of a human IgG1 Fc domain and mouse LAP-TGFβ1 (human; mouse, UniProt P04202 30-390); assay: BLI, 2:1 model, component 1
T5 construct: also called mouse LAP-TGFβ-Fc
T5 sequence (P04202 30-390 limits assumed): as the sequence (P17246 30-390 limits assumed) above, with D93E, T99S, F131L, T134S, V202K counted along it
Procedure: as §1, §2

[6] = molecular target: T2, fusion protein of a human IgG1 Fc …; assay: BLI, 2:1 model, component 2
Procedure: as §1, §2

[7] = molecular target: T3, fusion protein of a human IgG1 Fc …; assay: BLI, 2:1 model, component 2
Procedure: as §1, §2

[8] = molecular target: T4, fusion protein of a human IgG1 Fc …; assay: BLI, 2:1 model, component 2
Procedure: as §1, §2

[9] = molecular target: T5, fusion protein of a human IgG1 Fc …; assay: BLI, 2:1 model, component 2
Procedure: as §1, §2

[10] = molecular target: T1, human LAP-TGFβ1 overexpressed on cells; assay: flow cytometry; black bar HT1080-huB1, grey bar HT1080; remark: listed apart in the source
[11] = molecular target: T1, human LAP-TGFβ1 overexpressed on cells; assay: flow cytometry; black bar HT1080-huB1, grey bar HT1080-null

T1 sequence (P01137 30-390): as the sequence (P01137 30-390 limits assumed) above

B1: H0L0 (antibody, human IgG1, kappa, V domains shown)
VH: QVQLVQSGAEVKKPGASVKVSCKASGYTFTSYWMHWVRQAPGQGLEWMGRIDPNSGGIKYNEKFKSRVTMTRDTSISTAYMELSRLRSDDTAVYYCARWDYGGYFDVWGQGTLVTVSS
VL: DIQMTQSPSSLSASVGDRVTITCRASQDITNYLNWYQQKPGKAPKLLIYYTSRLHSGVPSRFSGSGSGTDFTLTISSLQPEDFATYYCQQGDTLPWTFGQGTKLEIKR
notes: also called 20E6_H0L0
**Q.** Does B1 bind [1]?
**A.** Result: no binding (tested: single dose, 50 µL of 100 ng/µL)

B2: H3L0 (antibody, human IgG1, kappa, V domains shown)
VH: QVQLVQSGAEVKKPGASVKVSCKASGYTFTSYWMHWVKQRPGQGLEWIGRIDPNSGGIKYNEKFKSKATLTVDKSSSTAYMELSRLRSDDTAVYYCARWDYGGYFDVWGQGTLVTVSS
VL: DIQMTQSPSSLSASVGDRVTITCRASQDITNYLNWYQQKPGKAPKLLIYYTSRLHSGVPSRFSGSGSGTDFTLTISSLQPEDFATYYCQQGDTLPWTFGQGTKLEIKR
notes: also called 20E6_H3L0
**Q.** Does B2 bind [1]?
**A.** Result: no binding (tested: single dose, 50 µL of 100 ng/µL)

B3: H2L0 (antibody, human IgG1, kappa, V domains shown)
VH: QVQLVQSGAEVKKPGASVKVSCKASGYTFTSYWMHWVRQAPGQGLEWIGRIDPNSGGIKYNEKFKSRVTLTVDKSSSTAYMELSRLRSDDTAVYYCARWDYGGYFDVWGQGTLVTVSS
VL: DIQMTQSPSSLSASVGDRVTITCRASQDITNYLNWYQQKPGKAPKLLIYYTSRLHSGVPSRFSGSGSGTDFTLTISSLQPEDFATYYCQQGDTLPWTFGQGTKLEIKR
notes: also called 20E6_H2L0
**Q.** Does B3 bind [1]?
**A.** Result: no binding (tested: single dose, 50 µL of 100 ng/µL)

B4: H1L0 (antibody, human IgG1, kappa, V domains shown)
VH: QVQLVQSGAEVKKPGASVKVSCKASGYTFTSYWMHWVRQAPGQGLEWIGRIDPNSGGIKYNEKFKSRVTLTVDTSISTAYMELSRLRSDDTAVYYCARWDYGGYFDVWGQGTLVTVSS
VL: DIQMTQSPSSLSASVGDRVTITCRASQDITNYLNWYQQKPGKAPKLLIYYTSRLHSGVPSRFSGSGSGTDFTLTISSLQPEDFATYYCQQGDTLPWTFGQGTKLEIKR
notes: also called 20E6_H1L0
**Q.** Does B4 bind [1]?
**A.** Result: no binding (tested: single dose, 50 µL of 100 ng/µL)

B5: 20E6_H0.2aL1_hIgG4mut (antibody)
heavy: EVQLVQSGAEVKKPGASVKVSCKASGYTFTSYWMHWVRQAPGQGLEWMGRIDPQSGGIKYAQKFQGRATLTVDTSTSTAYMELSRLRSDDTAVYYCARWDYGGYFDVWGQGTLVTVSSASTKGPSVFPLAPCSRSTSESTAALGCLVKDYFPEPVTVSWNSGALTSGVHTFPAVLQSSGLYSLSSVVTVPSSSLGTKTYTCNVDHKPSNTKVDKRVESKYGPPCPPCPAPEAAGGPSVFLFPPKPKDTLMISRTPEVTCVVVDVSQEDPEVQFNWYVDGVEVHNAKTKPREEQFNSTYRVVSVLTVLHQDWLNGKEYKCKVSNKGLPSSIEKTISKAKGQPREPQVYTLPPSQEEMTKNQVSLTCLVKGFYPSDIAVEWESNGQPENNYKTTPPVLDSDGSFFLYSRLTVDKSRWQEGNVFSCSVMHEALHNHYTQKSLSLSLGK
light: DIQMTQSPSSLSASVGDRVTITCRASQDITNYLNWYQQKPGKAVKLLIYYTSRLHSGVPSRFSGSGSGTDYTLTISSLQPEDFATYFCQQGDTLPWTFGQGTKLEIKRTVAAPSVFIFPPSDEQLKSGTASVVCLLNNFYPREAKVQWKVDNALQSGNSQESVTEQDSKDSTYSLSSTLTLSKADYEKHKVYACEVTHQGLSSPVTKSFNRGEC
**Q.** Which results are given for B5?
**A.** Kd [2]: 10.7 nM; koff [2]: 0.0303 s⁻¹; kon [2]: 2.8e+06 M⁻¹ s⁻¹; Kd [3]: 26.1 nM; koff [3]: 0.0524 s⁻¹; kon [3]: 2e+06 M⁻¹ s⁻¹; Kd [4]: 11.1 nM; koff [4]: 0.0406 s⁻¹; kon [4]: 3.6e+06 M⁻¹ s⁻¹; Kd [5]: 16.9 nM; koff [5]: 0.0478 s⁻¹; kon [5]: 2.8e+06 M⁻¹ s⁻¹; Kd [6]: 0.51 nM; koff [6]: 0.00036 s⁻¹; kon [6]: 700000 M⁻¹ s⁻¹; Kd [7]: 1.53 nM; koff [7]: 0.00143 s⁻¹; kon [7]: 940000 M⁻¹ s⁻¹; Kd [8]: 0.51 nM; koff [8]: 0.00087 s⁻¹; kon [8]: 1.7e+06 M⁻¹ s⁻¹; Kd [9]: 1.31 nM; koff [9]: 0.0011 s⁻¹; kon [9]: 840000 M⁻¹ s⁻¹

B6: 22F9_D102A (antibody, human IgG1, kappa, V domains shown)
VH: QVQLVQPGAEVVKPGASVKLSCKASGYTFTSYWMHWVKQRPGQGLEWIGMIHPNSGSTNYNEKFKSKATLTVDKSSSTAYMELSSLRSEDTAVYYCAYYDYAGFFDVWGQGTLVTVSS
VL: DIQLTQSPSSLSASVGDRVTITCRASKSVSTSGYSYMHWYQQKPGKAPKLLIYLASNLESGVPSRFSGSGSGTDFTLTISSLQPEDFATYYCQHSRELPYTFGGGTKVEIKR
notes: also called 22F9_H5L0 with VH D102A
**Q.** Does B6 bind [10]?
**A.** Result: binds

B7: 22F9_H3.1 variant (antibody, human IgG1, kappa, V domains shown)
VH: QVQLVQPGAEVVKPGASVKLSCKASGYTFTSYWMHWVRQAPGQGLEWIGMIHPQSGSTNYNEKFKSRVTLTVDKSSSTAYMELSSLRSEDTAVYYCAYYDYAGFFDVWGQGTLVTVSS
VL: DIQLTQSPSSLSASVGDRVTITCRASKSVSTSGYSYMHWYQQKPGKAPKLLIYLASNLESGVPSRFSGSGSGTDFTLTISSLQPEDFATYYCQHSRELPYTFGGGTKVEIKR
**Q.** Does B7 bind [11]?
**A.** Result: binds

B8: 22F9_H5.2L0 (antibody, human IgG1, kappa, V domains shown)
VH: QVQLVQPGAEVVKPGASVKLSCKASGYTFTSYWMHWVKQRPGQGLEWIGMIHPQSGSTNYNEKFKSKATLTVDKSSSTAYMELSSLRSEDTAVYYCAYYDYAGFFDVWGQGTLVTVSS
VL: DIQLTQSPSSLSASVGDRVTITCRASKSVSTSGYSYMHWYQQKPGKAPKLLIYLASNLESGVPSRFSGSGSGTDFTLTISSLQPEDFATYYCQHSRELPYTFGGGTKVEIKR
notes: also called 22F9_H5L0 with the double N54Q/D102A mutation
**Q.** Does B8 bind [10]?
**A.** Result: binds

B9: 22F9_H2.1 variant (antibody, human IgG1, kappa, V domains shown)
VH: QVQLVQPGAEVVKPGASVKLSCKASGYTFTSYWMHWVKQRPGQGLEWIGMIHPQSGSTNYNEKFKSKATLTVDKSTSTAYMELSSLRSEDTAVYYCAYYDYAGFFDVWGQGTLVTVSS
VL: DIQLTQSPSSLSASVGDRVTITCRASKSVSTSGYSYMHWYQQKPGKAPKLLIYLASNLESGVPSRFSGSGSGTDFTLTISSLQPEDFATYYCQHSRELPYTFGGGTKVEIKR
**Q.** Does B9 bind [11]?
**A.** Result: binds

B10: 22F9_N54Q (antibody, human IgG1, kappa, V domains shown)
VH: QVQLVQPGAEVVKPGASVKLSCKASGYTFTSYWMHWVKQRPGQGLEWIGMIHPQSGSTNYNEKFKSKATLTVDKSSSTAYMELSSLRSEDTAVYYCAYYDYDGFFDVWGQGTLVTVSS
VL: DIQLTQSPSSLSASVGDRVTITCRASKSVSTSGYSYMHWYQQKPGKAPKLLIYLASNLESGVPSRFSGSGSGTDFTLTISSLQPEDFATYYCQHSRELPYTFGGGTKVEIKR
notes: also called 22F9_H5L0 with VH N54Q
**Q.** Does B10 bind [10]?
**A.** Result: binds

B11: 22F9_H1.1 variant (antibody, human IgG1, kappa, V domains shown)
VH: QVQLVQPGAEVVKPGASVKLSCKASGYTFTSYWMHWVKQRPGQGLEWIGMIHPQSGSTNYNEKFKSKATMTVDKSSSTVYMELSSLRSEDTAVYYCAYYDYAGFFDVWGQGTLVTVSS
VL: DIQLTQSPSSLSASVGDRVTITCRASKSVSTSGYSYMHWYQQKPGKAPKLLIYLASNLESGVPSRFSGSGSGTDFTLTISSLQPEDFATYYCQHSRELPYTFGGGTKVEIKR
**Q.** Does B11 bind [11]?
**A.** Result: binds
